Measured values as given in paper PMC11905138.

How the values were obtained:
Conditions in all cases: reference: Flag-PKM2 wild type; sites Y105
[1] = molecular target: TSG101 (UniProt Q99816); test: anti-Flag co-IP, TSG101 blot
[2] = molecular target: IQGAP1 (UniProt P46940); test: anti-Flag IP, LC-MS/MS
[3] = molecular target: IQGAP1 (UniProt P46940); test: anti-Flag co-IP, IQGAP1 blot

Measured: binding against the reference

PKM2 (pyruvate kinase M2) (from UniProt P14618) Flag-PKM2 Y105F
lost: all assays above
